This experiment concerns the target PICK1 WT without SNAP-tag (rat (Rattus norvegicus)), Q9EP80. Kind of experiment: fluorescence polarisation; competition: increasing unlabelled peptide, fixed 70% saturating PICK1 with OrG DAT C13; 50 mM Tris pH 7.4, 125 mM NaCl, 1 mM DTT, 0.01% Triton X-100; on ice; apparent Ki. On the technique in general: Fluorescence polarisation rises when a labelled molecule tumbles more slowly, as on binding a larger partner.

EVRQFTLRHWLKV (modifications not checked) [unlabeled peptide of the DAT C-terminus (competitor in fluorescence polarisation)]: the Ki was found to be 2100 nM.

The record behind these values is paper PMC6345565.
